Measurements as given in US20190040368A1.
Blank lines part the entries; values can stand above or below the binder they belong to.

Target: recombinant human iduronate-2 sulfatase (rhIDS) (human) (UniProt P22304)
Assay: cell-based or functional assay

recombinant human iduronate-2 sulfatase (rhIDS) (human), sequence (P22304 26-550 limits assumed): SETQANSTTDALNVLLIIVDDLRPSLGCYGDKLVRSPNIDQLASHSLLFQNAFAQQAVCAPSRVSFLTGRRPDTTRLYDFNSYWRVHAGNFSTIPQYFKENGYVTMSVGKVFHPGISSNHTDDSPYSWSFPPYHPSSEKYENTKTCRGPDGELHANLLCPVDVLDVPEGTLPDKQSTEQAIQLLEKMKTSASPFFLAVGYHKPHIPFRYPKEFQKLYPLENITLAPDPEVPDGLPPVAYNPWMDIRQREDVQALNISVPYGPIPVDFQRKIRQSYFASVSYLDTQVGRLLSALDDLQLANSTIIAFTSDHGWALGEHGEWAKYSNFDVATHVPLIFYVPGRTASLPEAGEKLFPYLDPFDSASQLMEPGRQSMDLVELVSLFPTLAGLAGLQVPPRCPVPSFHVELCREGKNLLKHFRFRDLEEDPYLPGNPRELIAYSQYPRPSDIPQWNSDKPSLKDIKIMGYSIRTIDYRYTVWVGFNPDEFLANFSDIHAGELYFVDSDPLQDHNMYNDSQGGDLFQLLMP

B2: Gallus gallus Lip2-GgFGE-His6-HDEL fusion construct (enzyme)
chain: GKETAPGGNCGCSASRSRGGEREAVATVRRYSAAANDGRSSGRGPMVAIPGGVFTMGTDEPEIQQDGEWPARRVHVNSFYMDQYEVSNQEFERFVNSTGYLTEAEKFGDSFVFEGMLSEEVKAEIHQAVAAAPWWLPVKGANWRQPEGPGSSILSRMDHPVLHVSWNDAVAFCTWAGKRLPTEAEWEYGCRGGLEKRLFPWGNKLQPKGQHYANIWQGVFPTNNTAEDGYKGTAPVTAFPPNGYGLYNIVGNAWEWTSDWWAVHHSADEAHNPKGPSSGTDRVKKGGSYMCHKSYCYRYRCAARSQNTPDSSASNLGFRCAADALPDPQHHHHHHHDEL
% FGly (LC-MS); co-expression with GgFGE: 78%

B4: Columba livia Lip2-C1FGE-His6-HDEL fusion construct (enzyme)
chain: MVVIPGGVFTMGTDEPAIQQDGEWPVRKVHVNSFYMDRYEVSNEDFERFVNSTGYVTEAEKFGDSFVFEGMLSEEVKAEIHQAVAAAPWWLPVKGANWKHPEGPDSNISNRMDHPVLHVSWNDAVAFCTWAGKRLPTEAEWEYSCRGGLENRLFPWGNKLQPKGQHYANIWQGVFPTNNTAEDGYKGTAPVTAFPPNGYGLYNIVGNAWEWTADWWAVHHSTEEVHNPKGPSSGTDRVKKGGSYMCHKSYCYRYRCAARSQNTPDSSASNLGFRCAADASPELPHHHHHHHDEL
% FGly (LC-MS); co-expression with ClFGE: 100%

More lines, now with the values ahead:

% FGly (LC-MS); co-expression with MdFGE: 100%
B1: Monodelphis domestica Lip2-MdFGE-His6-HDEL fusion construct (enzyme)
chain: AARGLGSEAGSAAADAAHPAGTCGCGSPQRPGTAAHRYSREANVAEPASAERPVLTSQMAHIPAGVFTMGTDEPQIKQDGEGPARRVRINSFYMDLYEVSNAEFERFVNSTGYVTEAEKFGDSFVFDSMLSDQVKSDIHQAVAAAPWWLPVKGANWRHPEGPDSSILHRRDHPVLHVSWNDAVAYCTWAGKRLPTEAEWEYSCRGGLENRLFPWGNKLQPKGQHYANIWQGEFPVSNTGEDGYQGTAPVTAFPPNGYGLYNIVGNAWEWTSDWWTVHHSADETLDPKGPPSGSDRVKKGGSYMCHKSYCYRYRCAARSQNTPDSSASNLGFRCAADRLPDTHHHHHHHDEL

% FGly (LC-MS, cation exchange purified); OXYY1801 (20° C.), 1c rhIDS, 2c HpFGE: 100%
% FGly (LC-MS, cation exchange purified); OXYY1801 (24° C.), 1c rhIDS, 2c HpFGE: 100%
% FGly (LC-MS, cation exchange purified); OXYY1801 (26° C.), 1c rhIDS, 2c HpFGE: 70.4%
B3: Hemicentrotus pulcherrimus FGE fusion protein (Lip2pre-HpFGE-6HIS-HDEL) (enzyme)
chain: ENEDINQNISPTQSHTTATTEEELAEARGEEIDSDPTSEGSGAGEGCGCGSSALNRNHDEDALGLALEENLHDHVQEGAALKYSREANDPISMDHPEANVGAFPRTNQMNFIEGGTFRMGTDKAKIYLDGESPSRLVTLDPYYFDVYEVSNSEFELFVNTTSYITEAEKFGDSFVLEARISEEVKKDISQVVAAAPWWLPVKGAEWRHPEGPDSSISSRMDHPVTHISWNDATAYCQWAGKRLPTEAEWENAARGGLNNRLFPWGNKLMPKDHHRVNIWQGEFPKVNTAEDGYEGTCPVTAFEPNGYGLYNTVGNAWEWVADWWTTVHSPESQNNPVGPDEGTDKVKKGGSYMCHISYCYRYRCEARSQNSPDSSACNLGFRCAATNLPEDIPCSNCNDSTPHHHHHHHDEL
